By stoichiometry N is commonly meant the number of molecules, sites or subunits per partner or assembly.

Data set [1] concerns the target KCBP (construct not stated, in the KCBP-KIC complex) (Arabidopsis). Nature of the data set: SEC; Superdex-200 run of the KCBP-KIC complex that had been isolated on Ni-NTA agarose; in the presence of Ca2+.
In data set [2] the target is His-tagged KIC (Arabidopsis) (UniProt Q9ZPX9). Described as above.
Data set [3] concerns the molecule itself. Nature of the data set: SEC; Superdex 200 16/60; 50 mM Tris pH 7.5, 150 mM NaCl, 2 mM MgCl2, 0.1 mM ATP, 1 mM TCEP, and either 1 mM EGTA or 2 mM CaCl2; isolated proteins. Background: SEC sorts molecules by how far they enter the pores of the column.

With “KCBP (construct not stated, in the KCBP-KIC complex) (domain or fragment)”, the stoichiometry N in data set [1] worked out at 2.
Turning to “His-tagged KIC (from UniProt Q9ZPX9 1-135) (natural protein)”, in data set [2], the stoichiometry N was determined as 2.

B1: Arabidopsis KCBP (884–1253) (domain or fragment, UniProt Q9FHN8 884-1253, looked up)
chain: DMKGKIRVYCRIRPLNEKESSEREKQMLTTVDEFTVEHPWKDDKRKQHIYDRVFDMRASQDDIFEDTKYLVQSAVDGYNVCIFAYGQTGSGKTFTIYGHESNPGLTPRATKELFNILKRDSKRFSFSLKAYMVELYQDTLVDLLLPKSARRLKLEIKKDSKGMVFVENVTTIPISTLEELRMILERGSERRHVSGTNMNEESSRSHLILSVVIESIDLQTQSAARGKLSFVDLAGSERVKKSGSAGCQLKEAQSINKSLSALGDVIGALSSGNQHIPYRNHKLTMLMSDSLGGNAKTLMFVNVSPAESNLDETYNSLLYASRVRTIVNDPSKHISSKEMVRLKKLVAYWKEQAGKKGEEEDLVDIEEDRT
notes: motor domain with intact regulatory helix and negative coil; pET28b construct encoding a tag-free protein; source: E. coli BL21(DE3), purified (Calmodulin-Sepharose 4B)
On to B1, for which the “stoichiometry N” value in data set [3] stood at 2.

B2: Arabidopsis KCBP (820–1225) (domain or fragment, UniProt Q9FHN8 820-1225, looked up)
chain: NSDMLLLQNNLKELEELREMKEDIDRKNEQTAAILKMQGAQLAELEILYKEEQVLRKRYYNTIEDMKGKIRVYCRIRPLNEKESSEREKQMLTTVDEFTVEHPWKDDKRKQHIYDRVFDMRASQDDIFEDTKYLVQSAVDGYNVCIFAYGQTGSGKTFTIYGHESNPGLTPRATKELFNILKRDSKRFSFSLKAYMVELYQDTLVDLLLPKSARRLKLEIKKDSKGMVFVENVTTIPISTLEELRMILERGSERRHVSGTNMNEESSRSHLILSVVIESIDLQTQSAARGKLSFVDLAGSERVKKSGSAGCQLKEAQSINKSLSALGDVIGALSSGNQHIPYRNHKLTMLMSDSLGGNAKTLMFVNVSPAESNLDETYNSLLYASRVRTIVNDPSKHISSKEMVRL
notes: with the predicted N-terminal dimerization motif, without the regulatory helix; pET32 Xa/Lic; the tag's removal is told only in the general purification methods; the motility assay held motors by an anti-His antibody; also called N-terminal dimer of KCBP without the regulatory helix; source: E. coli BL21(DE3), purified (Ni-NTA, TEV-protease); not shown: His6-Trx, N-terminal, cleaved
As to B2, the “stoichiometry N” value in data set [3] stood at 2.

B3: Arabidopsis KIC (29–135) (domain or fragment, UniProt Q9ZPX9 29-135, looked up)
chain: MAEKMDVEEFVSELCKGFSLLADPERHLITAESLRRNSGILGIEGMSKEDAQGMVREGDLDGDGALNQTEFCVLMVRLSPEMMEDAETWLEKALTQELCNHNLSSMP
notes: KIC, Ca2+ ion sensor and regulator of KCBP, Arabidopsis, residues 29-135; The results speak of a deletion of the first 35 N-terminal residues; The tag's removal is told only in the general purification methods; source: E. coli BL21(DE3), purified (Ni-NTA, TEV-protease); not shown: His6-TRX, N-terminal, cleaved
Take B3: the “stoichiometry N” value in data set [3] was 2.

B4: full length Arabidopsis KIC (1–135) (natural protein, UniProt Q9ZPX9 1-135, looked up)
chain: MEPTEKSMLLETTSTTKMETKYEDMLPVMAEKMDVEEFVSELCKGFSLLADPERHLITAESLRRNSGILGIEGMSKEDAQGMVREGDLDGDGALNQTEFCVLMVRLSPEMMEDAETWLEKALTQELCNHNLSSMP
notes: KIC, Ca2+ ion sensor and regulator of KCBP, Arabidopsis, residues 1-135; The tag's removal is told only in the general purification methods; source: E. coli BL21(DE3), purified (Ni-NTA, TEV-protease); not shown: His6, N-terminal, cleaved
On to B4, for which the “stoichiometry N” value in data set [3] came out at 2.

For the origin of these results see publication PMC3689661, “Plant Kinesin-Like Calmodulin Binding Protein Employs Its Regulatory Domain for Dimerization” (PLoS ONE, 2013).
